According to the RNAGym collection of RNA variant scans (doi:10.7554/elife.80360):

B1: CPEB3 Ribozyme (parent)
chain: GGGGGCCACAGCAGAAGCGUUCACGUCGCGGCCCCUGUCAGAUUCUGGUGAAUCUGCGAAUUCUGCUGU

Variants of: B1
Experiment: self-cleavage, relative activity (ratio to wild type); higher = more cleavage; co-transcriptional
With GGGGGCCACAGCAGAAGCGUUCAGGUCACGGCCCCUGUCAGAUUCUGGUGAAUCUGCGAAUUCUGCUGU [C24G G28A] the self-cleavage was 0.14.
Variant GGGGGCCACAGCAGAAGCGUUCAGGUCGCGGCUCCUGUCAGAUUCUGGUGAAUCUGCGAAUUCUGCUGU [C24G C33U] has a self-cleavage of 0.38.
In the case of GGGGGCCACAGCAGAAGCGUUCAAGUCGCGGCCCCUGUCAGAUUCUGGUGAAUCUGCGAAUUCUGCAGU [C24A U67A], the self-cleavage is reported as 0.751.
Work on GGGGGCCACAGCAGAAGCGUUCAAGUCGCGGCCCCUGUCAGAUUCUGGUGAAUCUGCGAAUUCUGCGGU [C24A U67G] yielded a self-cleavage of 0.693.
Work on GGGGGCCACAGCAGAAGCGUUCAAGUCGCGGCCCCUGUCAGAUUCUGGUGAAUCUGCGAAUUCAGCUGU [C24A U64A] yielded a self-cleavage of 0.492.
Variant GGGGGCCACAGCAGAAGCGUUCAGGUCGCGGCCCCUGUCAGAUUCUGGUGAAUCUGCGAAUUAUGCUGU [C24G C63A] has a self-cleavage of 0.237.
Variant GGGGGCCACAGCAGAAGCGUUCAGGUCGCGGCCCCUGUCAGAUUCUGGUGAAUCUGCGAAUUUUGCUGU [C24G C63U] has a self-cleavage of 0.339.
GGGGGCCACAGCAGAAGCGUUCAGGUCGCGGCCCCUGUCAGAUUCUGGUGAAUCUGCGAAUUGUGCUGU [C24G C63G] gave a self-cleavage of 0.199.
With GGGGGCCACAGCAGAAGCGUUCAGGUCGCGGCCCCUGUCAGAUUCUGGUGAAUCUGAGAAUUCUGCUGU [C24G C57A] the self-cleavage was 0.172.
Variant GGGGGCCACAGCAGAAGCGUUCAGGUCGCGGCCCCUGUCAGAUUCUGGUGAAUCUGGGAAUUCUGCUGU [C24G C57G] has a self-cleavage of 0.13.
In the case of GGGGGCCACAGCAGAAGCGUUCAGGUCGCGGCCCCUGUCAGAUUCUGGUGAAUCUGUGAAUUCUGCUGU [C24G C57U], the self-cleavage is reported as 0.241.
GGGGGCCACAGCAGAAGCGUUCAAGUCGCGGCCCCUGUCAGAUUCUGGUGAAUCGGCGAAUUCUGCUGU [C24A U55G] gave a self-cleavage of 0.289.
Work on GGGGGCCACAGCAGAAGCGUUCAGGUCGCGGUCCCUGUCAGAUUCUGGUGAAUCUGCGAAUUCUGCUGU [C24G C32U] yielded a self-cleavage of 0.435.
For GGGGGCCACAGCAGAAGCGUUCAGGUCGCGGGCCCUGUCAGAUUCUGGUGAAUCUGCGAAUUCUGCUGU [C24G C32G], the self-cleavage was 0.239.
GGGGGCCACAGCAGAAGCGUUCAAGUCGCGGCCCCUGUCAGAUUCUGGUGAAACUGCGAAUUCUGCUGU [C24A U53A] showed a self-cleavage of 0.537.
In the case of GGGGGCCACAGCAGAAGCGUUCAAGUCGCGGCCCCUGUCAGAUUCUGGUGAAGCUGCGAAUUCUGCUGU [C24A U53G], the self-cleavage is reported as 0.506.
GGGGGCCACAGCAGAAGCGUUCAAGUCGCGGCCCCUGUCAGAUUCUGGUGAACCUGCGAAUUCUGCUGU [C24A U53C] showed a self-cleavage of 0.603.
GGGGGCCACAGCAGAAGCGUUCAGGUCGCGGCCCCUCUCAGAUUCUGGUGAAUCUGCGAAUUCUGCUGU [C24G G37C] showed a self-cleavage of 0.219.
GGGGGCCACAGCAGAAGCGUUCAGGUCGCGGCCCCUAUCAGAUUCUGGUGAAUCUGCGAAUUCUGCUGU [C24G G37A] gave a self-cleavage of 0.131.
For GGGGGCCACAGCAGAAGCGUUCAAGUCGCGGCCCCUGUCAGAUUCUGGUGAAUCUGCGAAUACUGCUGU [C24A U62A], the self-cleavage was 0.364.
With GGGGGCCACAGCAGAAGCGUUCAAGUCGCGGCCCCUGUCAGAUUCUGGUGAAUCUGCGAAUCCUGCUGU [C24A U62C] the self-cleavage was 0.402.
For GGGGGCCACAGCAGAAGCGUUCAGGUUGCGGCCCCUGUCAGAUUCUGGUGAAUCUGCGAAUUCUGCUGU [C24G C27U], the self-cleavage was 0.149.
With GGGGGCCACAGCAGAAGCGUUCAGGUAGCGGCCCCUGUCAGAUUCUGGUGAAUCUGCGAAUUCUGCUGU [C24G C27A] the self-cleavage was 0.201.
GGGGGCCACAGCAGAAGCGUUCAGGUGGCGGCCCCUGUCAGAUUCUGGUGAAUCUGCGAAUUCUGCUGU [C24G C27G] showed a self-cleavage of 0.192.
Variant GGGGGCCACAGCAGAAGCGUUCAGGUCGCGGCCCCUGUCAGAUUCUUGUGAAUCUGCGAAUUCUGCUGU [C24G G47U] has a self-cleavage of 0.508.
With GGGGGCCACAGCAGAAGCGUUCAGGUCGCGGCCCCUGUCAGAUUCUAGUGAAUCUGCGAAUUCUGCUGU [C24G G47A] the self-cleavage was 0.491.
In the case of GGGGGCCACAGCAGAAGCGUUCAGGUCGCGGCCCCUGUCAGAUUCUGUUGAAUCUGCGAAUUCUGCUGU [C24G G48U], the self-cleavage is reported as 0.528.
In the case of GGGGGCCACAGCAGAAGCGUUCAAGUCGCGGCCCCUGUCAGAUUCUGGUGAAUCUGCGAACUCUGCUGU [C24A U61C], the self-cleavage is reported as 0.374.
With GGGGGCCACAGCAGAAGCGUUCAAGUCGCGGCCCCUGUCAGAUACUGGUGAAUCUGCGAAUUCUGCUGU [C24A U44A] the self-cleavage was 0.705.
Work on GGGGGCCACAGCAGAAGCGUUCAAGUCGCGGCCCCUGUCAGAUCCUGGUGAAUCUGCGAAUUCUGCUGU [C24A U44C] yielded a self-cleavage of 0.628.
In the case of GGGGGCCACAGCAGAAGCGUUCAAGUCGCGGCCCCUGUCAGAUGCUGGUGAAUCUGCGAAUUCUGCUGU [C24A U44G], the self-cleavage is reported as 0.615.
Work on GGGGGCCACAGCAGAAGCGUUCAGGUCGCGGCCCCUGUUAGAUUCUGGUGAAUCUGCGAAUUCUGCUGU [C24G C39U] yielded a self-cleavage of 0.217.
For GGGGGCCACAGCAGAAGCGUUCAGGUCGCGGCCCCUGUCAGAUUUUGGUGAAUCUGCGAAUUCUGCUGU [C24G C45U], the self-cleavage was 0.464.
Work on GGGGGCCACAGCAGAAGCGUUCAGGUCGCGGCCCCUGUCAGAUUGUGGUGAAUCUGCGAAUUCUGCUGU [C24G C45G] yielded a self-cleavage of 0.436.
With GGGGGCCACAGCAGAAGCGUUCAGGUCGCGGCCCCUGUCAGAUUAUGGUGAAUCUGCGAAUUCUGCUGU [C24G C45A] the self-cleavage was 0.485.
Work on GGGGGCCACAGCAGAAGCGUUCAGGUCGCGGCCCCUGUCCGAUUCUGGUGAAUCUGCGAAUUCUGCUGU [C24G A40C] yielded a self-cleavage of 0.198.
Variant GGGGGCCACAGCAGAAGCGUUCAGGUCGCGGCCCCUGUCGGAUUCUGGUGAAUCUGCGAAUUCUGCUGU [C24G A40G] has a self-cleavage of 0.363.
GGGGGCCACAGCAGAAGCGUUCAGGUCGCGGCCCCUGUCAGAUUCUGGUGAAUCUGCGAAUUCUGAUGU [C24G C66A] gave a self-cleavage of 0.24.
Work on GGGGGCCACAGCAGAAGCGUUCAGGUCGCGGCCCCUGUCAGAUUCUGGUGAAUCUGCGAAUUCUGGUGU [C24G C66G] yielded a self-cleavage of 0.28.
